Source: paper PMC4903074 (Molecular cell, 2015)

T1: GST-RPN10 (residues 201–386), wild type (Arabidopsis thaliana, UniProt P55034 201-386)
T1 sequence (looked up): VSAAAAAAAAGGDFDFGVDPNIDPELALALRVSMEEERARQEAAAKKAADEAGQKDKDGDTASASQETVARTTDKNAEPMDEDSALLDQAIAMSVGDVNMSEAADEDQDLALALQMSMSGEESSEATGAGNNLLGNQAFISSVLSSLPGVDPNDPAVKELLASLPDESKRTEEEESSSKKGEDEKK

B1: His6-ATG8f (natural protein, Arabidopsis thaliana, UniProt Q8VYK7 1-117, looked up)
chain: MAKSSFKQEHDLEKRRAEAARIREKYPDRIPVIVEKAEKSDIPTIDKKKYLVPADLTVGQFVYVIRKRIKLSAEKAIFIFVDNVLPPAGALMSSVYEEKKDDDGFLYVTYSGENTFG
B2: His6-ATG8e (natural protein, Arabidopsis thaliana, UniProt Q8S926 1-118, looked up)
chain: MNKGSIFKMDNDFEKRKAEAGRIREKYPDRIPVIVEKAEKSEVPNIDKKKYLVPSDLTVGQFVYVIRKRIKLSAEKAIFIFVDNVLPPTGELMSSVYEDKKDEDGFLYITYSGENTFG

Tests used:
[1] = target: T1, GST-RPN10 (residues 201–386), wild type; test: pull-down
[2] = target: T1, GST-RPN10 (residues 201–386), wild type; test: pull-down; remark: listed apart in the source

| Binder | binding result [1] | Kd [2] |
| --- | --- | --- |
| B1 | binds |  |
| B2 |  | ~5.6 µM |
